Results as given in the supplement of paper PMC12042874.
± gives the uncertainty stated by the source.

Assay: amyloid nucleation score (Sup35N fusion, yeast selection) (log enrichment); library NNK3; higher = more nucleation; inactive = no reads after selection
How it was run: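 Nucleation score: DiMSum log enrichment of output over input reads, centred on the mode score of non-aggregating sequences. Only sequences with at least 100 input reads were kept. Reads came from Illumina sequencing of plasmid inserts before and after 7 days of growth at 30°C without adenine and uracil, in psi-negative yeast expressing Sup35N fused to peptides of 20 random codons after 24 hours of induction with 100 μM copper sulfate.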

Substance: GLDHSKGYLQLS
- amyloid nucleation score: inactive

Substance: GLFFW
- amyloid nucleation score: -0.669 ± 0.74

Substance: GLFYMMLLTRMGRYRGERNG
- amyloid nucleation score: 1.18 ± 0.1

Substance: GLHVTCGRDYHGWMGDCSMA
- amyloid nucleation score: inactive

Substance: GLKNRVSGPPFASTYFWSAL
- amyloid nucleation score: inactive

Substance: GLLVWQCMWGLDKKYLHSVY
- amyloid nucleation score: inactive

Substance: GLRVQCWECTIRSFGV
- amyloid nucleation score: 0.448 ± 0.24

Substance: GLSVVYSNRYNTWVRDLKDW
- amyloid nucleation score: 0.376 ± 0.22

Substance: GLSYNFHLCQVLVIFMVDGS
- amyloid nucleation score: 1.66 ± 0.1

Substance: GLTLFWITAVAQAWDWLDPL
- amyloid nucleation score: inactive

Substance: GLVLISKC
- amyloid nucleation score: inactive

Substance: GLVNCEHVWRIETKLVTPHL
- amyloid nucleation score: -0.764 ± 0.76

Substance: GLYPQWLGDGRWLSSGLATL
- amyloid nucleation score: 0.138 ± 0.33

Substance: GMQALIVFSSVVMRYAFVEG
- amyloid nucleation score: -1.18 ± 1.7

Substance: GMRFRCKRYVCVLQ
- amyloid nucleation score: -0.078 ± 0.98

Substance: GMTEGYYLESVGGSKFDNVV
- amyloid nucleation score: inactive

Substance: GNCGRSGINCHMTGTSVVRC
- amyloid nucleation score: inactive

Substance: GNCLIRLTYR
- amyloid nucleation score: inactive

Substance: GNFSRLDSCFTVVRARVKCN
- amyloid nucleation score: inactive

Substance: GNSAYK
- amyloid nucleation score: inactive

Substance: GNSIRAVVLLRMGLELDSGV
- amyloid nucleation score: inactive

Substance: GPLRVPVMMGCWRRIDRMPW
- amyloid nucleation score: inactive

Substance: GPSLVVNDLFGFCMVMYLND
- amyloid nucleation score: inactive

Substance: GQPAH
- amyloid nucleation score: inactive

Substance: GRDAVHHCMLRESQRKLREV
- amyloid nucleation score: inactive

Substance: GREFRICNSFVWVSVFIFCG
- amyloid nucleation score: inactive

Substance: GRHVLGCVDITTGARSLPRM
- amyloid nucleation score: inactive

Substance: GRKDAKR
- amyloid nucleation score: inactive

Substance: GRLCELITSMY
- amyloid nucleation score: inactive

Substance: GRLLRTMVD
- amyloid nucleation score: inactive

Substance: GRPTSRLMSNWTFPSATVSW
- amyloid nucleation score: inactive

Substance: GRRSNCINSVNSGTRGRRRA
- amyloid nucleation score: inactive

Substance: GRSLCVVCSGLVWLCW
- amyloid nucleation score: 2.19 ± 0.077

Substance: GRSSCLSTFC
- amyloid nucleation score: inactive

Substance: GRSWVLV
- amyloid nucleation score: inactive

Substance: GRSYREIMDSIFCGQFFYNK
- amyloid nucleation score: 2.45 ± 0.077

Substance: GRVPLPCICDRWYYLEGWEV
- amyloid nucleation score: -0.034 ± 0.96

Substance: GSATCAS
- amyloid nucleation score: inactive

Substance: GSHICGALSSRDLFSGVLRI
- amyloid nucleation score: inactive

Substance: GSISIVVQM
- amyloid nucleation score: 2.2 ± 0.075

Substance: GSKFIFFLMFYGVWLRSPSK
- amyloid nucleation score: inactive

Substance: GSMFFNVC
- amyloid nucleation score: 0.254 ± 0.28

Substance: GSPECPLVEV
- amyloid nucleation score: inactive

Substance: GSSRSGKGHCMLRVSVFYCV
- amyloid nucleation score: inactive

Substance: GSTGVIDDLSKVHCGGMCVD
- amyloid nucleation score: inactive

Substance: GSTSRIPGVLVSKRRANMQH
- amyloid nucleation score: inactive

Substance: GSTVEYTFGDWKYQDMSSVC
- amyloid nucleation score: inactive

Substance: GSTYTVGSAGSSMTTRDLDM
- amyloid nucleation score: inactive

Substance: GSVQTHFLDYGCSPNMDMLV
- amyloid nucleation score: inactive

Substance: GSYTLYFVIWLFHIRFYGTR
- amyloid nucleation score: inactive

Substance: GTDVRS
- amyloid nucleation score: -0.272 ± 0.43

Substance: GTIMMWLGVQRVLTASGKGG
- amyloid nucleation score: inactive

Substance: GTNDDESRRRRREWD
- amyloid nucleation score: inactive

Substance: GTNIFVKTDTYCPFICST
- amyloid nucleation score: inactive

Substance: GTRIGEIRLASFGSVRGFNV
- amyloid nucleation score: inactive

Substance: GTYLGELVTGLTPGRCPGHF
- amyloid nucleation score: inactive

Substance: GTYLVSDAAGFYSWYLHYSF
- amyloid nucleation score: inactive

Substance: GTYVKLLEVFTSFSWFRRFF
- amyloid nucleation score: inactive

Substance: GVDCQASILHPCLFF
- amyloid nucleation score: inactive

Substance: GVDFEDQPSSQDFLYSARYL
- amyloid nucleation score: inactive

Substance: GVFDYTYGRLVAVFKGFGNY
- amyloid nucleation score: inactive

Substance: GVFVEIRILYKGKWYTCMSK
- amyloid nucleation score: inactive

Substance: GVGNKGSTKNLEQVTASVVV
- amyloid nucleation score: inactive

Substance: GVKGFQRQKRIFFGFCEFKV
- amyloid nucleation score: inactive

Substance: GVNVTKVFTFRMVSCGPDDF
- amyloid nucleation score: 0.294 ± 0.21

Substance: GVPMCSWGMIILL
- amyloid nucleation score: inactive

Substance: GVSNRHGGTIYRQRAMHSVG
- amyloid nucleation score: inactive

Substance: GVWRLSVYT
- amyloid nucleation score: inactive

Substance: GWGPGARGGLEDRGDCVCFL
- amyloid nucleation score: inactive

Substance: GWLLRCVSTLGGLKTLLC
- amyloid nucleation score: inactive

Substance: GYLLTVLLLSMFNSFDNDWL
- amyloid nucleation score: inactive

Substance: GYMGVGRIVSA
- amyloid nucleation score: inactive

Substance: GYNNVESGNKYMLEDDFAFS
- amyloid nucleation score: inactive

Substance: GYQDAFIP
- amyloid nucleation score: inactive

Substance: GYRRKNRHSWTDPGITALNK
- amyloid nucleation score: inactive

Substance: GYVPMYVCLSPYHKTVLWLS
- amyloid nucleation score: 0.447 ± 0.2

Substance: GYWWELSSKVNVCAMMHRPW
- amyloid nucleation score: inactive

Substance: HAEFSEHITCGGSGPSCFVG
- amyloid nucleation score: inactive

Substance: HAFRVSLSLVVVCCVIWDTN
- amyloid nucleation score: inactive

Substance: HANRSCCLPCIHLPFSRVLS
- amyloid nucleation score: inactive

Substance: HAQCLMSIIEVS
- amyloid nucleation score: -0.029 ± 1.1

Substance: HCHDVGVLLIKFCNNLWCSH
- amyloid nucleation score: 1.99 ± 0.1

Substance: HCLLCNYRLWSACKCPGYVS
- amyloid nucleation score: inactive

Substance: HCRDEYYIYNRI
- amyloid nucleation score: inactive

Substance: HEKSIRVESMAVLIRPVTRS
- amyloid nucleation score: inactive

Substance: HFARDPLSERSKFPLIF
- amyloid nucleation score: 0.623 ± 0.15

Substance: HFIKGGLHCVS
- amyloid nucleation score: inactive

Substance: HFQCLMSVRSGSNQTRDILL
- amyloid nucleation score: 1.28 ± 0.15

Substance: HFSKHTVTNRPYDVHNLGKC
- amyloid nucleation score: inactive

Substance: HFSLGLVMYLCSLGNVRP
- amyloid nucleation score: 1.47 ± 0.11

Substance: HGDVCMNMGYNRT
- amyloid nucleation score: inactive

Substance: HGFERSRSGNRSGLIDDLGC
- amyloid nucleation score: inactive

Substance: HGFFNLWWRARLHLAPLHHH
- amyloid nucleation score: inactive

Substance: HGGCC
- amyloid nucleation score: inactive

Substance: HGGIHCYFFYSYGDLEKEIL
- amyloid nucleation score: 2.44 ± 0.078

Substance: HGMPMVAFITFVVNIRGLCD
- amyloid nucleation score: 0.079 ± 0.81

Substance: HGWSS
- amyloid nucleation score: inactive

Substance: HGWYSVFADSRRYCKRVRYT
- amyloid nucleation score: inactive

Substance: HHAVYIVVRMADKACDWGCC
- amyloid nucleation score: 1.84 ± 0.078

Substance: HHLGRSLGIVTSLQLGIILL
- amyloid nucleation score: inactive

Substance: HIEVCGTLLYCGDRQISVNN
- amyloid nucleation score: 0.49 ± 0.27

Substance: HIFHQIKANDHAIFLGNVSG
- amyloid nucleation score: inactive

Substance: HIKKRYKLLAMLLMSDLR
- amyloid nucleation score: inactive

Substance: HINISFISYYRRRMYYNVCG
- amyloid nucleation score: 1.62 ± 0.092

Substance: HIRFWSDNRT
- amyloid nucleation score: 0.468 ± 0.2

Substance: HIRRCEVTNTF
- amyloid nucleation score: inactive

Substance: HITCVMSIKTRGLRMTERGS
- amyloid nucleation score: 1.51 ± 0.096

Substance: HITVNRSKGFDGSRTAPFQM
- amyloid nucleation score: inactive

Substance: HIVLVSRLHITAGGRF
- amyloid nucleation score: -0.179 ± 0.65

Substance: HIWAHAFISLVLWLSPLSVS
- amyloid nucleation score: inactive

Substance: HKFDNKIRPTWYVVLPIFNA
- amyloid nucleation score: inactive

Substance: HKITVNLS
- amyloid nucleation score: inactive

Substance: HKRIFGCVISVPFTSCFT
- amyloid nucleation score: inactive

Substance: HKRLMFDMYHPIWMFYCSAC
- amyloid nucleation score: inactive

Substance: HKWAI
- amyloid nucleation score: inactive

Substance: HLHVVHKIAS
- amyloid nucleation score: -0.471 ± 0.82

Substance: HLLTLTI
- amyloid nucleation score: 0.501 ± 0.26

Substance: HLSLAVEFA
- amyloid nucleation score: inactive

Substance: HLTHFQQILRFNKAETCVRT
- amyloid nucleation score: inactive

Substance: HLTHVYVADSVGLKLFVYHP
- amyloid nucleation score: 1.9 ± 0.072

Substance: HLTLSAQRATSVVCERLQIS
- amyloid nucleation score: inactive

Substance: HLWTFEITSTGYL
- amyloid nucleation score: inactive

Substance: HMVSTDVTENLWFRQ
- amyloid nucleation score: inactive

Substance: HNFYKGFDYHLECMGADTGE
- amyloid nucleation score: inactive

Substance: HNSACFANSDEVSVASRAMT
- amyloid nucleation score: 2.45 ± 0.08

Substance: HNSRN
- amyloid nucleation score: 0.186 ± 0.21

Substance: HNVCTKAKTRMYRVERS
- amyloid nucleation score: inactive

Substance: HNVFVFCNMAVIELQVNDWL
- amyloid nucleation score: 3.26 ± 0.063

Substance: HPMLFSFYVKGRVFLSRV
- amyloid nucleation score: inactive

Substance: HPSVVLHGEATCTASRVLQV
- amyloid nucleation score: inactive

Substance: HQPGSRLI
- amyloid nucleation score: inactive

Substance: HREPTNSNRMEIELRKSVWR
- amyloid nucleation score: inactive

Substance: HRLVGTNISSTR
- amyloid nucleation score: inactive

Substance: HRMCVRRFRVFRESVEEVHF
- amyloid nucleation score: inactive

Substance: HRSINCWAYVRL
- amyloid nucleation score: inactive

Substance: HRSISLRLYWNIHVKCFLTY
- amyloid nucleation score: inactive

Substance: HRVYLPGRWRLMISLSC
- amyloid nucleation score: -0.201 ± 1.3

Substance: HRWNMSWFGYFNLRLSVIET
- amyloid nucleation score: inactive

Substance: HRYVKALRFF
- amyloid nucleation score: inactive

Substance: HSDCDRTVTSGVELDSYGWT
- amyloid nucleation score: inactive

Substance: HSIIRVSFLDMVCAGNSIVR
- amyloid nucleation score: -0.504 ± 1.9

Substance: HSIIVEWKC
- amyloid nucleation score: inactive

Substance: HSLIVYHLS
- amyloid nucleation score: inactive

Substance: HSMLDFFST
- amyloid nucleation score: inactive

Substance: HSRVWGKYSGSLPGKM
- amyloid nucleation score: inactive

Substance: HSRWMAFPWMLGPLLLNRNL
- amyloid nucleation score: inactive

Substance: HSSSYCSSYKERSIPWSW
- amyloid nucleation score: 0.93 ± 0.12

Substance: HSTLSLMHDSYRACSWKCNA
- amyloid nucleation score: inactive

Substance: HTYDCAAFCPAGAGNR
- amyloid nucleation score: inactive

Substance: HVDTSPSYIPPGIKLVRQRM
- amyloid nucleation score: -0.528 ± 0.36

Substance: HVFIEFGKL
- amyloid nucleation score: -0.259 ± 0.42

Substance: HVFNGY
- amyloid nucleation score: inactive

Substance: HVFRLCMGKTELAYFY
- amyloid nucleation score: inactive

Substance: HVGAIMLLLLLTSERLMTLD
- amyloid nucleation score: inactive

Substance: HVLYRRSSPYCVRWCNITER
- amyloid nucleation score: inactive

Substance: HVSLNLDSQNCCMSECFA
- amyloid nucleation score: inactive

Substance: HVTQLNGVAYSCEI
- amyloid nucleation score: inactive

Substance: HVVFNIIFWYSGRIGLSDIT
- amyloid nucleation score: 1.94 ± 0.084

Substance: HVVHYDMFHDGLSLWDQEAR
- amyloid nucleation score: inactive

Substance: HWFTLSKYGR
- amyloid nucleation score: inactive
